Consider one molecule from PMC6199243 (Scientific Reports, 2018).

The target in this test is T1, a-subunit of recombinant Enterococcus hirae V-ATPase (Enterococcus hirae, UniProt P43439 1-664).
T1 construct: a-subunit of Enterococcus hirae V-ATPase (NtpI); In the map it is represented by a T. thermophilus model (PDB 5GAS) and a homology model of its C-terminal half; also called Eh a-subunit; transmembrane a-subunit; source: E. coli, expressed from pTR19-EhV-ATPase, purified as part of the whole r-EhV-ATPase (Ni-NTA, Superdex 200) in 0.05% DDM
T1 sequence (looked up): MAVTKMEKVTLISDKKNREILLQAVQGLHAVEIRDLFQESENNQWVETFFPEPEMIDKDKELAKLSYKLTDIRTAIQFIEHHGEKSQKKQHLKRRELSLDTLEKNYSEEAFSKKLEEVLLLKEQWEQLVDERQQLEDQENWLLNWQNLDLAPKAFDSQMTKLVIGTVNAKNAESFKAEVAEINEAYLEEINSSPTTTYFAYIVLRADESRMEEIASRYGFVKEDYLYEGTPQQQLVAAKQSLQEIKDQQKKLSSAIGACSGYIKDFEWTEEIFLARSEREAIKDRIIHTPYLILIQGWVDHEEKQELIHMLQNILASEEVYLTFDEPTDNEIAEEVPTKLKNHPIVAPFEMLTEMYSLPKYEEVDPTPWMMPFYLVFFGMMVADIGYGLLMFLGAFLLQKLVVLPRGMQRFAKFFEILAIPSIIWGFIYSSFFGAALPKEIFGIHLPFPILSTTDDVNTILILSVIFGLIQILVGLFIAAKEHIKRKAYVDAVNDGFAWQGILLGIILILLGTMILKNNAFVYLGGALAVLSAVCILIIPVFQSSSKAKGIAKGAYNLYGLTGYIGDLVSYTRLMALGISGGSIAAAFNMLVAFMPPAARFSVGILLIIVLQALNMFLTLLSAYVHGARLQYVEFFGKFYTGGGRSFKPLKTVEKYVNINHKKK
Kind of test: cryo-EM structure; Zernike phase plate single-particle cryo-EM of r-EhV-ATPase in 0.05% DDM, 17.3 Å; earlier atomic models and homology models fitted into the map. The note with it: both partners purified.

B1: EG complex (peripheral stalk) of recombinant Enterococcus hirae V-ATPase (complex)
chain 1: MPIDKIITQINETAQLERASFEEMKRKEIDQKFEVKKWQIEADFQKEKASKLEEIERSYRQLRNKQKMQVKQEILNAKQEVLQRLFTEATLQLENEPKEEQLALMKQMIQTLPINGTARLIPGEKSADILTPAVIAEWNEELPFELIREDFTEKAQAGLIIDDAGIQYNFLFSHLIKEIQETMSAEIAKELFD
chain 2: MARILTRIKEAEENNQKKEEQVKAELAQYEQLKNNELIDLNKEFQERLTKLMKEKEKNEEEVTEDEQHKLELILEQFRQKVLEIEKTYLEKEEEEIAKKKNLTNEIIERMKQNNGCH
notes: E-subunit of Enterococcus hirae V-ATPase (NtpE); G-subunit of Enterococcus hirae V-ATPase (NtpF); Two EG peripheral stalks stand in the whole enzyme; The models fitted into the map for EG are of T. thermophilus (PDB 3K5B, 3V6I), not of E. hirae; also called peripheral stalks; source: E. coli, expressed from pTR19-EhV-ATPase, purified as part of the whole r-EhV-ATPase (Ni-NTA, Superdex 200) in …
With B1, the binding result is recorded as “binds”.
